The values below come from patent US20230192896A1 (BIOVERATIV THERAPEUTICS, published 2023).

The chains are these.
B1: BIIB-9-451 (antibody, V domains shown)
VH: QLQLQESGPGLVKPSETLSLTCTVSGGSISSSSYYWGWIRQPPGKGLEWIGSISYSGSTYYNPSLKSRVTISVDTSKNQFSLKLSSVTAADTAVYYCARDSGGYYYQGFDYWGQGTLVTVSS
VL: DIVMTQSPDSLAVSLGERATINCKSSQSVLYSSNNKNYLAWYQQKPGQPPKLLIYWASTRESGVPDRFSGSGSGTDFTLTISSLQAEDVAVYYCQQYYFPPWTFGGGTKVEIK
notes: IgG
B2: BIIB-9-573 (antibody, V domains shown)
VH: QLQLQESGPGLVKPSETLSLTCTVSGGSISSSSYYWGWIRQPPGKGLEWIGSIYYSGSTYYNPSLKSRVTISVDTSKNQFSLKLSSVTAADTAVYYCARESKTKGYLDLWGRGTLVTVSS
VL: EIVLTQSPGTLSLSPGERATLSCRASQSVSSSFLAWYQQKPGQAPRLLIYGASSRATGIPDRFSGSGSGTDFTLTISRLEPEDFAVYYCQQSHSPPYTFGGGTKVEIK
notes: IgG
B3: BIIB-9-473 (antibody, V domains shown)
VH: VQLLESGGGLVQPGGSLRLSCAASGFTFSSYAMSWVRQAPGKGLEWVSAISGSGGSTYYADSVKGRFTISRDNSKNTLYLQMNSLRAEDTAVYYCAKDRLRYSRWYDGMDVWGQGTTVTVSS
VL: EIVLTQSPATLSLSPGERATLSCRASQSVSSYLAWYQQKPGQAPRLLIYDASNRATGIPARFSGSGSGTDFTLTISSLEPEDFAVYYCQQRSFLPYTFGGGTKVEIK
notes: IgG
B4: BIIB-9-565 (antibody, V domains shown)
VH: QLQLQESGPGLVKPSETLSLTCTVSGGSISSSSYYWGWIRQPPGKGLEWIGSIYYSGSTYYNPSLKSRVTISVDTSKNQFSLKLSSVTAADTAVYYCARAGMYSSYANWFDPWGQGTLVTVSS
VL: EIVLTQSPATLSLSPGERATLSCRASQSVSSYLAWYQQKPGQAPRLLIYDASNRATGIPARFSGSGSGTDFTLTISSLEPEDFAVYYCQQDSNLPFTFGGGTKVEIK
notes: IgG
B5: BIIB-9-1280 (antibody, V domains shown)
VH: QVQLVQSGAEVKKPGASVKVSCKASGYTFTSYYMVWVRQAPGQGLEWMGIINPSGGSTSYAQKFQGRVTMTRDTSTSTVYMELSSLRSEDTAVYYCARGPWYSYYYMDVWGKGTTVTVSS
VL: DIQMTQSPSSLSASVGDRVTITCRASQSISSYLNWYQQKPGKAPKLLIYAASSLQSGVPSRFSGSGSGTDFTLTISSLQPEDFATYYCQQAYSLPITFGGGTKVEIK
notes: IgG
B6: BIIB-9-416 (antibody, V domains shown)
VH: QVQLVQSGAEVKKPGASVKVSCKASGYTFTSYYMHWVRQAPGQGLEWMGIINPSGGSTSYAQKFQGRVTMTRDTSTSTVYMELSSLRSEDTAVYYCAREGPMLDYPTYSNWFDPWGQGTLVTVS
VL: EIVMTQSPATLSLSPGERATLSCRASQSVSSYLAWYQQKPGQAPRLLIYDSSNRATGIPARFSGSGSGTDFTLTISSLEPEDFAVYYCQQRVVWPPTFGGGTKVEIK
notes: IgG
B7: BIIB-9-885 (antibody, V domains shown)
VH: QVQLVQSGAEVKKPGASVKVSCKASGYTFTSYYMHWVRQAPGQGLEWMGIINPSGGSTSYAQKFQGRVTMTRDTSTSTVYMELSSLRSEDTAVYYCAREGPMLDYPTYSNWFDPWGQGTLVTVSS
VL: EIVLTQSPATLSLSPGERATLSCRASQSVSSYLAWYQQKPGQAPRLLIYDASKRATGIPARFSGSGSGTDFTLTISSLEPEDFAVYYCQQRVIWPPTFGGGTKVEIK
notes: IgG
B8: BIIB-9-408 (antibody, V domains shown)
VH: QVQLVQSGAEVKKPGASVKVSCKASGYTFTSYYMHWVRQAPGQGLEWMGIINPSGGSTTYAQKFQGRVTMTRDTSTSTVYMELSSLRSEDTAVYYCARDPGAYDDWSGYDDYGMDVWGQGTTVTVSS
VL: EIVLTQSPATLSLSPGERATLSCRASQSVSSYLAWYQQKPGQAPRLLIYDASNRATGIPARFSGSGSGTDFTLTISSLEPEDFAVYYCQQAFVWPPITFGGGTKVEIK
notes: IgG
B9: BIIB-9-629 (antibody, V domains shown)
VH: QVQLVQSGAEVKKPGASVKVSCKASGYTFTSYYMHWVRQAPGQGLEWMGVINPSGGSTSYAQKFQGRVTMTRDTSTSTVYMELSSLRSEDTAVYYCARDPSQDYATGTGWFDPWGQGTLVTVSS
VL: DIQLTQSPSSLSASVGDRVTITCQASQDISNYLNWYQQKPGKAPKLLIYDASNLETGVPSRFSGSGSGTDFTFTISSLQPEDIATYYCQQLDSLPPTFGGGTKVEIK
notes: IgG

The first assay concerns the target T1, FIXa-SM (FIXa+EGR-CMK) (human, UniProt P00740 47-191; P00740 227-461, EGR-CMK (L-Glu-Gly-Arg chloromethyl ketone) covalently bound to the active site).
T1 construct: BLI antigen bought from Haematologic Technologies (HCIXA-EGR); also called FIXa with substrate mimic
As to the kind of experiment: BLI; class meaning: paragraph 914.
As to B1, the binding result was “binds”. With B2, the binding result is given as “binds”. For the molecule B3, the binding result is “binds”. Still for that read-out and setting: the result for B4 reads “binds”; that for B5, “binds”.

In a further assay the target is T2, free FIXa (activated Factor IX) (human, UniProt P00740 47-191; P00740 227-461).
T2 construct: BLI antigen bought from Haematologic Technologies (HCIXA-0050); also called factor IXa
The experiment in a line: BLI; class meaning: paragraph 914.
Regarding B6, the binding result is recorded as “binds”. As for B7, the binding result is recorded as “binds”. As to B8, the binding result is recorded as “binds”. On the same count and under the same terms, the result for B9 reads “binds”; that for B5, “binds”.
